Test results from doi:10.1101/2023.08.11.553033.
Read-outs that look alike come from different tables or passages of the source.

Tests used:
Pdr1p DBD [1] = molecular target: T1, Pdr1p DBD (Saccharomyces cerevisiae, UniProt P12383 1-207); assay: competition fluorescence polarization
T1 sequence: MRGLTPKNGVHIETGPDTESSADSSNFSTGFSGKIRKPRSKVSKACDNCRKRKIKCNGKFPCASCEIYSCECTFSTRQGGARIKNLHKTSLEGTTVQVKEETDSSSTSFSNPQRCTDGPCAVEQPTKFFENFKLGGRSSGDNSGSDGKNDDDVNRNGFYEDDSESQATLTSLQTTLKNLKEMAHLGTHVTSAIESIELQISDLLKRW

Pdr3p DBD [2] = molecular target: T2, Pdr3p DBD (Saccharomyces cerevisiae, UniProt P33200 1-184); assay: competition fluorescence polarization
T2 sequence: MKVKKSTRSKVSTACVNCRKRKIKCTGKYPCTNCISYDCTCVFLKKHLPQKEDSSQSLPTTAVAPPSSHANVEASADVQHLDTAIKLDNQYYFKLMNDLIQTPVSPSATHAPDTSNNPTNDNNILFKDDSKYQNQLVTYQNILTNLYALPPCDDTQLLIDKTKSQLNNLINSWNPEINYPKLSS

Pdr1p DBD [3] = molecular target: T1, Pdr1p DBD; assay: competition fluorescence polarization; remark: listed apart in the source
Pdr1p DBD [4] = molecular target: T1, Pdr1p DBD; assay: fluorescence polarization
Pdr3p DBD [5] = molecular target: T2, Pdr3p DBD; assay: fluorescence polarization
Pdr1p DBD [6] = molecular target: T1, Pdr1p DBD; assay: competition fluorescence polarization; remark: listed apart in the source
Pdr3p DBD [7] = molecular target: T2, Pdr3p DBD; assay: competition fluorescence polarization; remark: listed apart in the source
Pdr1p DBD [8] = molecular target: T1, Pdr1p DBD; assay: competition fluorescence polarization; remark: listed apart in the source
Pdr3p DBD [9] = molecular target: T2, Pdr3p DBD; assay: competition fluorescence polarization; remark: listed apart in the source

B1: PDR5_4 C4A G4T G14A (paper numbering) (dsDNA)
DNA 1: AAAATTCCGTGGAAAACC
DNA 2: GGTTTTCCACGGAATTTT
B1: binds (Pdr1p DBD [1]); binds (Pdr3p DBD [2]).

B2: PDR5_4 G4T G14A (paper numbering) (dsDNA)
DNA 1: AAACTTCCGTGGAAAACC
DNA 2: GGTTTTCCACGGAAGTTT
B2: binds (Pdr1p DBD [3]).

B3: PBM half site 18mer (dsDNA)
DNA 1: AAAAGTTCCGGAACAACC
DNA 2: GGTTGTTCCGGAACTTTT
For B3, the Kd (Pdr1p DBD [4]) was 229 nM and the Kd (Pdr3p DBD [5]) was 118 nM.

B4: PBM half site TTCCGAAA (dsDNA)
DNA 1: AAAAGTTCCGAAACAACC
DNA 2: GGTTGTTTCGGAACTTTT
B4: binds (Pdr1p DBD [6]); binds (Pdr3p DBD [7]).

B5: PBM half site TTCAAGAA (dsDNA)
DNA 1: AAAAGTTCAAGAACAACC
DNA 2: GGTTGTTCTTGAACTTTT
With B5 the binding signal (Pdr1p DBD [8]) was 30 fold lower affinity than PBM half site and the binding signal (Pdr3p DBD [9]) was 2.5 fold lower affinity than PBM half site.
